Results reported in US20220289837A1, “Cystic Fibrosis Transmembrane Conductance Regulator Stabilizing Agents” (VIB VZW, priority 2019, published 2022).

What was measured:
F508del-2PT-NBD1 [1] = target: T1, F508del-2PT-NBD1 (Homo sapiens, UniProt P13569, A534P/DEL508-508/I539T/S492P/V470M); assay: Thermal shift assay (DSF) of F508del-2PT-NBD1; format: binding
T1 construct: His6-SUMO (N, cleaved yes); made in house; host or cells: Escherichia coli BL21(DE3) pLysS
Experimental: (§1) Solutions of either 2PT-NBD1 or F508del-2PT-NBD1 (10 μM final concentration), nanobodies (30 μM final concentration) and 2.5× or 5× concentrated SYPRO Orange Protein Stain (Molecular Probes) diluted in 20 mM HEPES pH 7.5, 150 mM NaCl, 3 mM MgCl2, 2 mM ATP and 10% (w/v) glycerol, 10% (w/v) ethylene glycol, were added to the wells of a 96-well PCR plates type BR white (VWR) in a final volume of 25 μl. Plates were sealed with EasySeal sheets (Molecular dimensions) and spun 2 min at 900× g. SYPRO orange fluorescence was monitored in CFX96 Touch Real-Time PCR Detection System (Bio-Rad) using FRET scan mode from 10 to 80° C. in increments of either 1° C. or 0.2° C.

2PT-NBD1 [2] = target: T2, 2PT-NBD1 (Homo sapiens, UniProt P13569, A534P/I539T/S492P/V470M); assay: Thermal shift assay (DSF) of 2PT-NBD1; format: binding; conditions: versus isolated 2PT-NBD1
T2 construct: 2PT-NBD1 mutants (residues 387-646 containing the mutations S492P, A534P, I539T); His6-SUMO (N, cleaved yes); made in house; host or cells: Escherichia coli BL21(DE3) pLysS
Experimental: as §1

F508del-2PT-NBD1 [3] = target: T1, F508del-2PT-NBD1; assay: NBD1 ELISA dose-response, nanobody binding to immobilized F508del-2PT-NBD1; conditions: F508del-2PT-NBD1 versus 2PT-NBD1
Experimental: For dose-response assays, Nunc MaxiSorp 96-well plates (ThermoScientific), were coated with 5 μg/ml NeutrAvidin Biotin-Binding protein (ThermoScientific) overnight at 4° C. and blocked 2 h at room temperature (RT) with 2% milk in phosphate-buffered saline (PBS). Each new reagent addition was preceded by three washes with 200 μl of NBD1 buffer (20 mM HEPES pH 7.5, 150 mM NaCl, and 10% (w/v) glycerol, 10% (w/v) ethylene glycol, 2 mM ATP, 3 mM MgCl2). Then, biotinylated purified NBD1 proteins at 5 μg/ml were immobilized 30 min at RT followed by 1 h RT incubation with 100 μl various concentrations (0-20 μg/ml) of purified nanobodies. Signal detection was followed using His-tag specific antibody (Invitrogen, catalogue number: MA1-135, 1:3000 dilution) to detect the nanobodies and secondary antibody anti-mouse coupled to horse radish peroxidase (HRP) (Millipore, catalogue number: AP308P, 1:5000 dilution). 50 μl of 1-Step UltraTMB-ELISA (ThermoScientific) was used as a substrate for the peroxidase and intensity of the reaction was proportional to absorbance measured at 450 nm with SynergyMx (BioTek) after addition of 50 μl H2SO4 at 1M.
(§2) Affinity constants (KD) and thermodynamic parameters from ITC experiments were determined using one-site binding model with MicroCal Origin 7.0 software (Origin Lab Corp.). Dose response ELISA curves of each Nb binding to either isolated NBD1 or purified FL-CFTR were fitted using the sigmoidal dose-response equation from GraphPad Prism 3. DSC data were analyzed with the MicroCal Origin 7.0 software (Origin Lab Corp.), from which the unfolding temperature (Tm) was obtained.

parental BHK-21 cells = assay: Flow cytometry on parental BHK-21 cells; format: cell-based, hamster; conditions: compared to negative control nanobody
Experimental: (§3) Parental BHK-21 cells (ATCC; CCL-10) and cells stably overexpressing human wt-CFTR^[43,44,47] or 2PT-F508del-CFTR, as described above, were permeabilized with 0.01% n-Dodecyl-β-D-Maltopyranoside β-DDM—Inalco) at least for 2 h on ice. In the meantime, cells were incubated with 50 μg/ml nanobodies and DRAQ7 (0.3 μM—Biostatus) to monitor the permeabilization state. Nanobody binding was detected by using His-tag specific antibody (Invitrogen, catalogue number MA1-135, 1 μg/ml) or Myc-tag specific antibody (Invitrogen, catalogue number 13-2500, 2 μg/ml) and then anti-mouse-Alexa Fluor 488 (Invitrogen, catalogue number A11001, 1.3 μg/ml) at least for 30 min on ice. Cells were washed one time between each step by centrifugation (200×g for 5 min at 4° C.). All incubations (100 μl) and washes (1.5 ml) were performed in PBS with 6% fetal bovine serum (FBS) and 0.01%13-DDM on ice. Cells fluorescence was measured with Gallios Flow Cytometer (Beckman Coulter). Data were analyzed with Kaluza software.

wt-CFTR [4] = target: T3, wt-CFTR (Homo sapiens, UniProt P13569); assay: CFTR pull-down from solubilized BHK-21 cells with immunoblot; format: binding; parameters: expressed in transfected cells; conditions: immunoblot with mAb 596
Experimental: Human wt-CFTR was extracted from BHK-21 cells pellet by solubilization with 1% DMNG in PBS with proteases inhibitors for 1 h at 4° C. The cells debris were removed by centrifugation (16,000×g for 30 min at 4° C.). Supernatant was diluted 10 times in PBS with proteases inhibitors plus 10 mM imidazole and incubated at least for 30 min on HisPur Ni-NTA Resin (Thermo Scientific) pre-loaded with nanobodies. Resin was washed with 40 column volumes of PBS with 300 mM NaCl. Nanobodies were eluted with 200 mM imidazole in PBS. Presence of CFTR in each sample was detected by SDS-PAGE and immuno-blotting.
Cell extracts were separated by SDS-PAGE on 7.5% polyacrylamide gel and transferred to nitrocellulose membrane (Bio-Rad) for immunodetection. After blocking for 1 h with 5% bovine serum albumin (BSA) in Tris-buffered saline added 0.05% Tween-20 (TBST), CFTR was detected using monoclonal antibody mAb 596, IgG2b (CFTR Antibody Distribution Program, dilution 1:46) for 1 h in blocking buffer. Blot was washed 3 times 5 min and incubated with anti-mouse-HRP antibody (Millipore, catalogue number: AP308P, 0.2 μg/ml) for 1 h in TBST. Membrane was washed 3 times for 5 min. CFTR was visualized by chemiluminescence using Luminata Forte Western HRP Substrate (Millipore) and detected with ImageQuant 400 (GE Healthcare).

[5] = target: T4, stab-CFTR: 2PT/ΔRI/R1048A_1172X (Homo sapiens, UniProt P13569, A534P/DEL405-436/I539T/R1048A/S492P); assay: NanoDSF thermostability of stab-CFTR; format: binding; conditions: versus stab-CFTR alone
T4 construct: made in house; host or cells: BHK-21 cells (ATCC CCL-10), pNUT vector
Experimental: Purified stabilized human CFTR (stab-CFTR: 2PT/ΔRI/R1048A_1172X) was concentrated to 0.5 mg/ml and mixed with 0.1 mg/ml nanobody (^˜[…]) and capillaries were loaded with a volume of 10 The capillaries were placed into trays of Prometheus NT.48 (Nanotemper) and subjected to the fluorescence analysis. The emission of fluorescent radiation with the wavelengths of 330 nm and 350 nm was measured with the temperature changes from 25 to 85° C., with the rate of 1° C. min-1. The first derivative of 350 nm fluorescence was used to determine the melting temperature of the proteins.

wt-CFTR [6] = target: T3, wt-CFTR; assay: Flow cytometry on permeabilized BHK-21 cells overexpressing wt-CFTR; format: cell-based; parameters: expressed in transfected cells; conditions: compared to negative control nanobody
Experimental: as §3

2PT-NBD1 [7] = target: T2, 2PT-NBD1; assay: Isothermal titration calorimetry (ITC) of nanobodies into 2PT-NBD1; format: binding; conditions: 20° C., 2PT-NBD1, mean±SD (n=3)
Experimental: Interactions between nanobodies and 2PT-NBD1 was carried out on NanoITC system (TA Instruments) in 0.165 ml cells at 20° C., 300 rpm syringe stirring. Proteins were extensively dialyzed in 20 mM Hepes buffer pH 7.5, 150 mM NaCl, 10% (w/v) glycerol, 10% (w/v) ethylene glycol, 2 mM ATP and 3 mM MgCl2 for 16 h at 4° C. Heat of dilution from control experiments of each nanobody titrated into buffer was subtracted from the titration into 2PT-NBD1. Data were integrated analyzed with Origin 7.0 software (Origin Lab Corp.).
as §2

T3 sequence (P13569 whole entry): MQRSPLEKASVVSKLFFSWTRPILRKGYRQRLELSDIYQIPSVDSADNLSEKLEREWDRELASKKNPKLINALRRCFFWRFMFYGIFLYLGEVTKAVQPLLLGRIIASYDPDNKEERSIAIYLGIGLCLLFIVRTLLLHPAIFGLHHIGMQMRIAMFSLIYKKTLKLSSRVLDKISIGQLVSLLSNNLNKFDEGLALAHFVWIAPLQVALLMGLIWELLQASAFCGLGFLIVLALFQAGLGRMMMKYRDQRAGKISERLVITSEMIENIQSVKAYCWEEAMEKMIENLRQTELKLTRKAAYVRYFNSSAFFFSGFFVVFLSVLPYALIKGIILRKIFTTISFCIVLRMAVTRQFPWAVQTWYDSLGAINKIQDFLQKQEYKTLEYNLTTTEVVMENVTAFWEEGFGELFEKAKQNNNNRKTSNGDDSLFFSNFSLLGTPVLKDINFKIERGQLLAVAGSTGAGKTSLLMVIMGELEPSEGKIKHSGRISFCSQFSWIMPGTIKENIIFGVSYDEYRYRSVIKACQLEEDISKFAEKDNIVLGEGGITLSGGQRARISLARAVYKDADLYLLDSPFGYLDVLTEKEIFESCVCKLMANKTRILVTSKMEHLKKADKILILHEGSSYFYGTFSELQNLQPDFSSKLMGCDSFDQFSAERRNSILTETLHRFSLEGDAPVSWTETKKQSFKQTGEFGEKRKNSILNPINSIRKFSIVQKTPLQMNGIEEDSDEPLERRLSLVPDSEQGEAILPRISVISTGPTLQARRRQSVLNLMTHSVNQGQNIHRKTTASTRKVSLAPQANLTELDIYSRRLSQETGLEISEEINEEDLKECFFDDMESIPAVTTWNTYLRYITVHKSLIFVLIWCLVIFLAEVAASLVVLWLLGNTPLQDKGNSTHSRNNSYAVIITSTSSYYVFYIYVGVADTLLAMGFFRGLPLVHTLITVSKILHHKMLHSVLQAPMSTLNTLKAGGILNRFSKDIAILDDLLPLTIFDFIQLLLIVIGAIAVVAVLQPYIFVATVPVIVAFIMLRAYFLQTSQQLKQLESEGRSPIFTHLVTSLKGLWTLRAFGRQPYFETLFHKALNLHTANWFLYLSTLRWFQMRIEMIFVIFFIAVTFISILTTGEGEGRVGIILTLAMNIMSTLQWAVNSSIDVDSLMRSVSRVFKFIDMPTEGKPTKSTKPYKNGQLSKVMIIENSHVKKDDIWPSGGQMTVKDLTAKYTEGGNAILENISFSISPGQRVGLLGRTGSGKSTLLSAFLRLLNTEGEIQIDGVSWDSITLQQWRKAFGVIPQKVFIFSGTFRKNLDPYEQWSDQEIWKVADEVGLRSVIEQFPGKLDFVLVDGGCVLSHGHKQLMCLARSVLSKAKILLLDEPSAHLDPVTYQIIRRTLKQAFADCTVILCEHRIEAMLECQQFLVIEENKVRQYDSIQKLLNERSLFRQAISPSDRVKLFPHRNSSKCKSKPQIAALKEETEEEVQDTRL
T2 sequence (P13569 388-646 V470M/S492P/A534P/I539T): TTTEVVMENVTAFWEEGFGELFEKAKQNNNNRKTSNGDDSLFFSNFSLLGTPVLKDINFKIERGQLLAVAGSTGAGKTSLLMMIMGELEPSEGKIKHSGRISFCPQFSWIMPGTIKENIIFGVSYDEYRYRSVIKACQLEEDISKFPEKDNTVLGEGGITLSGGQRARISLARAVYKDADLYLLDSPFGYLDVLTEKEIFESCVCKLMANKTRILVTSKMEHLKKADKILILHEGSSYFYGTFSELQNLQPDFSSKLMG
T1 sequence (P13569 with tags, fused parts or gaps V470M/S492P/DEL508-508/A534P/I539T limits assumed): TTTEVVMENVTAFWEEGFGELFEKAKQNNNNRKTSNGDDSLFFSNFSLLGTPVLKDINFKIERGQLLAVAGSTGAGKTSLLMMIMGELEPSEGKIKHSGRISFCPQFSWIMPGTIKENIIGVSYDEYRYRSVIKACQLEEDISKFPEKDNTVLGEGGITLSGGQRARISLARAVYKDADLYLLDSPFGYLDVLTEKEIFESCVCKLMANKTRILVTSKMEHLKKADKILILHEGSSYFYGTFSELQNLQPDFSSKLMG
T4 sequence (P13569 with tags, fused parts or gaps DEL405-436/S492P/A534P/I539T/R1048A limits assumed): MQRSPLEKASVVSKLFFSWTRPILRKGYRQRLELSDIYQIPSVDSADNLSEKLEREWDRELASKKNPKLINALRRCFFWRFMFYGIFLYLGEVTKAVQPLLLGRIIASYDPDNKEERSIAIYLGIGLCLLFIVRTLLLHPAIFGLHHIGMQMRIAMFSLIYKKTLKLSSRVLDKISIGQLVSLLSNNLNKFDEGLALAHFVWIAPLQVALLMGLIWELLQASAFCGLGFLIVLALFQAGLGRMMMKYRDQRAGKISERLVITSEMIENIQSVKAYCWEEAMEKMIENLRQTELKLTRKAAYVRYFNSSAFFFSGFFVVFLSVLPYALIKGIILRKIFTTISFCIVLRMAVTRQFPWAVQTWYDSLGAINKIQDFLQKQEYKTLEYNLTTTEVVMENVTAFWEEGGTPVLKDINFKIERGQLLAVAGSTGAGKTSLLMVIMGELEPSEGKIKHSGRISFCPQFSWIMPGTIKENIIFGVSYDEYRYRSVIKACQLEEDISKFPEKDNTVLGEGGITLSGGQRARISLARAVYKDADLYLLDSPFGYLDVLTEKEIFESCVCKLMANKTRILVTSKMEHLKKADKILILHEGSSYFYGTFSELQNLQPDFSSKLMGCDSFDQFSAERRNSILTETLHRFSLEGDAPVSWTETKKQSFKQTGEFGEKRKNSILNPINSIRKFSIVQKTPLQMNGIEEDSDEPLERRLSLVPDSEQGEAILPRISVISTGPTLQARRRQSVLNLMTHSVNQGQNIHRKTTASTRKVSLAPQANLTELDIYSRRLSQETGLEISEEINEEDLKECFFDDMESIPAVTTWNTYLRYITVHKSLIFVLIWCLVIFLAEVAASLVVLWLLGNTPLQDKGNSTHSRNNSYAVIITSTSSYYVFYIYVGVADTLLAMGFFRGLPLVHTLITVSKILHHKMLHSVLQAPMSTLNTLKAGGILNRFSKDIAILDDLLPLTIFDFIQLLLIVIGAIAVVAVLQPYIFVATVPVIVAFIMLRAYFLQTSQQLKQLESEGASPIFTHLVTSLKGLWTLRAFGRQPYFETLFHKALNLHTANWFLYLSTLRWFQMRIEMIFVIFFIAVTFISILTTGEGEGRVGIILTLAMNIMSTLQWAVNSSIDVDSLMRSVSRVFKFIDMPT

stabilization of F508del-2PT-NBD1 (F508del-2PT-NBD1 [1]): did not stabilize | effect of F508del mutation on binding (F508del-2PT-NBD1 [3]): drastically affected | pull-down of cellular CFTR, electrophoresis pattern (mature band C) (wt-CFTR [4]): also observed | labelling of BHK-21 cells overexpressing wt-CFTR (wt-CFTR [6]): increased labelling | Kd (2PT-NBD1 [7]): 37.9 ± 7 nM
B1: T4: nanobody, SEQ ID NO:6, binds epitope 2 including F508, stabilizes wild type CFTR (protein)
VHH: QVQLQESGGGLVQAGGSLRLSCAASGSTFAIIAMGWYRQAPGKQRELVAVISTGDTRYADSVKGRFTISRDNAKNTVYLQMDSLRPEDTAVYYCNAAVQVRDYRNYWGQGTQVTVSS
modifications: T4 Nanobody amino acid sequence
increase of Tm of 2PT-NBD1 (2PT-NBD1 [2]): 12.5 °C | labelling of parental BHK-21 cells (parental BHK-21 cells): no difference in labelling | thermostabilization of stab-CFTR (Tm increase) [5]: 8 °C
